In the DeepSol protein solubility set:

Test: soluble on expression in E. coli; label from the status in PepcDB or PDB records
For “MSSKFRTEDAWIIGQRMAARLDHEAYPLHKAAFFNDTHSIVQLLRAGRSLSEKDTHGNTALHIATMLGHREAIAILLANNAPVRIKNIDGWNPLMESVSYGDRQIITEMLRKLKTQTNEKMSRGKPHLMKMFQDLGDFYMEFKWDFQSWIPLLSRILPSDVCLIYKKGNLLRMDTTLADFSERNWERGDITFLFNVDAPPGEQLVVMDNKTKVFQRGRREESEAEIDEEVDVLMSTDIVNAHMSTKTVGFKQAYSGWVFKHAREEQMGDFPVNFYSVEGLKLTTRKRREHLTSDDVKKNKSILHSLTSGHTVNDDEFSVEPPTPKIATPTGRLPTTWEEYSGAAPGAPPQMGRPQIVKTNEKQFKALVGMSEEFPLSVDVLVDLLEVVAPFKHLDKLRRFCSARLPPGFPVCVEIPLLATIAAKVTFQKFQFTNDIQDKMFTIPTSYREDPTRFPDL”, the “soluble on expression in E. coli” value was “not soluble”. For “MSSKNPVDEQPCCGSHEGSHQDPAPETLVVEKEVNNGEKKIRIAVVGCSHGEMDAIYETMTLIEQKNGYKFDLLICCGDYQAVRNYGDLPHMSIPPKYRSLQTFYKYYSGEQKAPVLTLFIGGNHEASGYLCELPNGGWVAPNIYYMGFANCIRFANLRIAGLSGIFSQGDFQFSHYERPSFSERDVKSAYHVRNVDMFRLRQLKSDNENKISNPIDIMLSHDWPGGIPDFGDKEWLFRKKDLFEADHNSGKLGNPSGMKLIYDCRPRYYLAAHLHIAFAALVPHKGSGSGRPQPTRFLSLDKPIPGRKFMQALELNVADDAKLELSYDPQWLAILRNTDLLTTGTKEQLILPDMASNRPCVYERKDFRPTAEELKEIEKLGDLTIRTDSFQQTAPPLKEITESSKNVPPSAYYRNPQSAEFCQWLGIRDLNQMLVEKTSEHVGTPYYMMTQDDANAKPNQDDVDFGDEDFVIDRGHTSDEPEAKKSRLDEDKFEAVPSE”, the “soluble on expression in E. coli” value was “soluble”. For “MSSLCLQRLQEERKKWRKDHPFGFYAKPVKKADGSMDLQKWEAGIPGKEGTNWAGGVYPITVEYPNEYPSKPPKVKFPAGFYHPNVYPSGTICLSILNEDQDWRPAITLKQIVLGVQDLLDSPNPNSPAQEPAWRSFSRNKAEYDKKVLLQAKQYSK”, the “soluble on expression in E. coli” value was “soluble”. For “MSSNDSSLMAGIIYYSQEKYFHHVQQAAAVGLEKFSNDPVLKFFKAYGVLKEEHIQDAISDLESIRHHPDVSLCSTMALIYAHKRCEIIDQEAIQELEYSLKEIRKTLSGTALYYAGLFLWLIGRHDKAKEYIDRMLKISRGFREAYVLRGWVDLTSDKPHTAKKAIEYLEQGIQDTKDVLGLMGKAMYFMMQQNYSEALEVVNQITVTSGSFLPALVLKMQLFLARQDWEQTVEMGHRILEKDESNIDACQILTVHELAREGNMTTVSSLKTQKVILETESRRNPS”, the “soluble on expression in E. coli” value was “not soluble”. For “MSSPKKNFKKPQPKTENQKQALNEERIAELKKSRILGKNRPFKKMIYVDTKAQRKQKHENVAFLKTLQENKESDVPKKRRGRKPKHAPLKEKNNLKLFDILEGSLKSHTENDDTNKVISLLVEVWEKKNKKKDNNSLSNKDIVNVLSKFELPDDEIIFVLDELR”, the “soluble on expression in E. coli” value was “soluble”. In the case of “MSSQVSTSRGLPSPSKLGTFESPHTWQMSGPTGQAEAGSSDDQDIRLLSVSWNQDFGCFAAGTSNGFRIFNCDPFKETFRRDLKSGGFGIVEMLFRCNILALVGGGSNAHYPPNKVMIWDDHRSHCIGEFAFRSDVRAVKLGKDYIVIVLERKIYVYNFTDLKLLHQIETQSNPKGLCCLSHHSNTSVLACPGVHQGHVRVEHFGLKVTRMISAHDSHISCMALTMDGLLLATASMKGTLIRIFNTMDGTRLQEVRRGLDKADIYSIALSPNVQWLAVSSDKGTVHIFSLRVRVAGEDASNEQRSLEGPRMDHQNSSSSIDPLIQTNTGSNASSSLSFMKGILPKYFSSEWSFAQFHLPEVTRYIVAFGAQNTVMMVGLDGSFYRCSFDQVNGGQMLQKEYFRFIKADLTPLRTSAP”, the “soluble on expression in E. coli” value was “not soluble”. In the case of “MSSSLFAPTIETIDYPFPPKPVPLSDAQKADYKARIKQLLIEKDAVLVAHYYTDPEIQALAEETGGCVSDSLEMARFGRDHPAKTLIVAGVKFMGETAKILSPEKTILMPTLEATCSLDLGCPIDKFSAFCDAHPDHTVVVYANTSAAVKARADWVVTSSIALEIVEHLDSEGKKIIWGPDRHLGSYIAKQTGAEMLMWQGDCIVHDEFKANALRDLKSVYPDAAILVHPESPASVVAMADAVGSTSQLIKAAQTMPNERFIVATDRGIFYKMQQAAPGKTLIEAPTGGNGATCKSCAHCPWMAMNGLKAIEASLSNSDKTTHEIFVDEDLRVKALIPLTRMLDFAKTLNMKVKGNA”, the “soluble on expression in E. coli” value was “soluble”.
